We go through 1 molecule from article PMC4888889, “Role of VicRKX and GlnR in pH-Dependent Regulation of the Streptococcus salivarius 57.I Urease Operon”.

This series concerns the target MalE (MBP) (UniProt P0AEX9 27-396). The series is described as follows: EMSA; EMSA: 50 mM Tris-HCl pH 7.4, 50 mM KCl, 2 mM MgCl2, 100 ng poly(dI-dC), 0.5 ug BSA, 0.01 pmol probe, 4 C 30 min; DAPA: 10 mM Tris-HCl pH 7.6, 60 mM KCl, 5% glyc. Background: A gel shift assay detects complexes by their altered migration in electrophoresis.

B1: VicR box probe (dsDNA)
DNA 1: CTAATATGTAAATGTTGCAAAATTTCTGAA
DNA 2: TTCAGAAATTTTGCAACATTTACATATTAG
As for B1, the binding result is listed as “no binding”.
